B1: recombinant polypeptide SKP2-K19 (N-SKP2 (second polypeptide)-linker peptide-K19 (first polypeptide)-C) (other)
chain: MGGLDYKDDDDKASHRKHLQEIPDLSSNVATSFTWGWDSSKTSELLSGMGVSALEKEEPDSENIPQELLSNLGHPESPPRKRLKSKGSDKDFVIVRRPKLNRENFPGVSWDSLPDELLLGIFSCLCLPELLKVSGVCKRWYRLASDESLWQTLDLTGKNLSGSGSGSGMDLGKKLLEAARAGQDDEVRILMANGADVNASDRGGGTPLHLAAAGGHLEIVEVLLKRGADVSAADLHGQSPLHLAAMVGHLEIVEVLLKYGADVNAKDTMGATPLHLAARSGHLEIVEELLKNGADMNAQDKFGKTTFDISTDNGNEDLAEILQKL
B2: recombinant polypeptide CRBN-K19 (N-CRBN (second polypeptide)-linker peptide-K19 (first polypeptide)-C) (other)
chain: MGGLDYKDDDDKASAGEGDQQDAAHNMGNHLPLLPAESEEEDEMEVEDQDSKEAKKPNIINFDTSLPTSHTYLGADMEEFHGRTLHDDDSCQVIPVLPQVMMILIPGQTLPLQLFHPQEVSMVRNLIQKDRTFAVLAYSNVQEREAQFGTTAEIYAYREEQDFGIEIVKVKAIGRQRFKVLELRTQSDGIQQAKVQILPECVLPSTMSAVQLESLNKCQIFPSKPVSREDQCSYKWWQKYQKRKFHCANLTSWPRWLYSLYDAETLMDRIKKQLREWDENLKDDSLPSNPIDFSYRVAACLPIDDVLRIQLLKIGSAIQRLRCELDIMNKCTSSGSGSGSGMDLGKKLLEAARAGQDDEVRILMANGADVNASDRGGGTPLHLAAAGGHLEIVEVLLKRGADVSAADLHGQSPLHLAAMVGHLEIVEVLLKYGADVNAKDTMGATPLHLAARSGHLEIVEELLKNGADMNAQDKFGKTTFDISTDNGNEDLAEILQKL
B3: recombinant polypeptide K19-SOCS2 (N-K19 (first polypeptide)-linker peptide-SOCS2 (second polypeptide)-C) (other)
chain: MDLGKKLLEAARAGQDDEVRILMANGADVNASDRGGGTPLHLAAAGGHLEIVEVLLKRGADVSAADLHGQSPLHLAAMVGHLEIVEVLLKYGADVNAKDTMGATPLHLAARSGHLEIVEELLKNGADMNAQDKFGKTTFDISTDNGNEDLAEILQKLSGSGSGSGPRNGTVHLYLTKPLYTSAPSLQHLCRLTINKCTGAIWGLPLPTRLKDYLEEYKFQVGS
B4: recombinant polypeptide K19-CHIP (N-K19 (first polypeptide)-linker peptide-CHIP (second polypeptide)-C) (other)
chain: MDLGKKLLEAARAGQDDEVRILMANGADVNASDRGGGTPLHLAAAGGHLEIVEVLLKRGADVSAADLHGQSPLHLAAMVGHLEIVEVLLKYGADVNAKDTMGATPLHLAARSGHLEIVEELLKNGADMNAQDKFGKTTFDISTDNGNEDLAEILQKLSGSGSGSGRLNFGDDIPSALRIAKKKRWNSIEERRIHQESELHSYLSRLIAAERERELEECQRNHEGDEDDSHVRAQQACIEAKHDKYMADMDELFSQVDEKRKKRDIPDYLCGKISFELMREPCITPSGITYDRKDIEEHLQRVGHFDPVTRSPLTQEQLIPNLAMKEVIDAFISENGWVEDYGS
B5: recombinant polypeptide K19-SPOP (N-K19 (first polypeptide)-linker peptide-SPOP (second polypeptide)-C) (other)
chain: MDLGKKLLEAARAGQDDEVRILMANGADVNASDRGGGTPLHLAAAGGHLEIVEVLLKRGADVSAADLHGQSPLHLAAMVGHLEIVEVLLKYGADVNAKDTMGATPLHLAARSGHLEIVEELLKNGADMNAQDKFGKTTFDISTDNGNEDLAEILQKLGSGSGSGSVNISGQNTMNMVKVPECRLADELGGLWENSRFTDCCLCVAGQEFQAHKAILAARSPVFSAMFEHEMEESKKNRVEINDVEPEVFKEMMCFIYTGKAPNLDKMADDLLAAADKYALERLKVMCEDALCSNLSVENAAEILILADLHSADQLKTQAVDFINYHASDVLETSGWKSMVVSHPHLVAEAYRSLASAQCPFLGPPRKRLKQS
B6: recombinant polypeptide K19-ASB1 (N-K19 (first polypeptide)-linker peptide-ASB1 (second polypeptide)-C) (other)
chain: MDLGKKLLEAARAGQDDEVRILMANGADVNASDRGGGTPLHLAAAGGHLEIVEVLLKRGADVSAADLHGQSPLHLAAMVGHLEIVEVLLKYGADVNAKDTMGATPLHLAARSGHLEIVEELLKNGADMNAQDKFGKTTFDISTDNGNEDLAEILQKLSGSGSGSGVKWESLGPESRGRRKVDPEALQVFKEARSVPRTLLCLCRVAVRRALGKHRLHLIPSLPLPDPIKKFLLHEGS
B7: recombinant polypeptide DDB2-K19 (N-DDB2 (second polypeptide)-linker peptide-K19 (first polypeptide)-C) (other)
chain: MGGLDYKDDDDKASAPKKRPETQKTSEIVLRPRNKRSRSPLELEPEAKKLCAKGSGPSRRCDSDCLWVGLAGPQILPPCRSIVRTLHQHKLGRASWPSVQQGLQQSFLHTLDSYRILQKAAPFDRRASGSGSGSGMDLGKKLLEAARAGQDDEVRILMANGADVNASDRGGGTPLHLAAAGGHLEIVEVLLKRGADVSAADLHGQSPLHLAAMVGHLEIVEVLLKYGADVNAKDTMGATPLHLAARSGHLEIVEELLKNGADMNAQDKFGKTTFDISTDNGNEDLAEILQKL
B8: recombinant polypeptide βTrCP-K19 (N-βTrCP (second polypeptide)-linker peptide-K19 (first polypeptide)-C) (other)
chain: MGGLDYKDDDDKASDPAEAVLQEKALKFMNSSEREDCNNGEPPRKIIPEKNSLRQTYNSCARLCLNQETVCLASTAMKTENCVAKTKLANGTSSMIVPKQRKLSASYEKEKELCVKYFEQWSESDQVEFVEHLISQMCHYQHGHINSYLKPMLQRDFITALPARGLDHIAENILSYLDAKSLCAAELVCKEWYRVTSDGMLWKKLIERMVRTDSLWRGLAERRGWGQYLFKNKPPDGNAPPNSFYRALYPKIIQDIETIESNWRCGRHSLQRIHCRSGSGSGSGMDLGKKLLEAARAGQDDEVRILMANGADVNASDRGGGTPLHLAAAGGHLEIVEVLLKRGADVSAADLHGQSPLHLAAMVGHLEIVEVLLKYGADVNAKDTMGATPLHLAARSGHLEIVEELLKNGADMNAQDKFGKTTFDISTDNGNEDLAEILQKL
B9: recombinant polypeptide FBW7-K19 (N-FBW7 (second polypeptide)-linker peptide-K19 (first polypeptide)-C) (other)
chain: MGGLDYKDDDDKASCVPRSGLILSCICLYCGVLLPVLLPNLPFLTCLSMSTLESVTYLPEKGLYCQRLPSSRTHGGTESLKGKNTENMGFYGTLKMIFYKMKRKLDHGSEVRSFSLGKKPCKVSEYTSTTGLVPCSATPTTFGDLRAANGQGQQRRRITSVQPPTGLQEWLKMFQSWSGPEKLLALDELIDSCEPTQVKHMMQVIEPQFQRDFISLLPKELALYVLSFLEPKDLLQAAQTCRYWRILAEDNLLWREKCKEEGIDEPLHIKRRKVIKPGFIHSPWKSAYIRQHRIDTNWRRGELKSPSGSGSGSGMDLGKKLLEAARAGQDDEVRILMANGADVNASDRGGGTPLHLAAAGGHLEIVEVLLKRGADVSAADLHGQSPLHLAAMVGHLEIVEVLLKYGADVNAKDTMGATPLHLAARSGHLEIVEELLKNGADMNAQDKFGKTTFDISTDNGNEDLAEILQKL

Target: KRAS protein (UniProt P01116 1-186, limits assumed)
Test: cell-based or functional assay

| Percentage of KRAS protein level (Western Blot, H358 cells, 6 hours after transfection; protein level of EV29-K19-VHKC as control) [%] | Binder |
| --- | --- |
| 20.4 | B1 |
| 28.2 | B2 |
| 47.3 | B3 |
| 28.3 | B4 |
| 22.4 | B5 |
| 39.8 | B6 |
| 52.6 | B7 |
| 19.3 | B8 |
| 45.9 | B9 |

— US20230042694A1 (SUZHOU CUREMED BIOMEDICAL TECHNOLOGY, published 2023)
